The chains are these.
B1: Dbhu225-scTRAIL3-FLVGGGPQRVA (antibody)
chain: DYKDDDDKGGGGSGTEVQLVESGGGLVQPGGSLRLSCAASGFSLTNYGVHWVRQAPGKGLEWLGVIWSGGNTDYNTPFTSRFTISRDNSKNTLYLQMNSLRAEDTAVYYCARALTYYDYEFAYWGQGTTVTVSSGGGGSDIQLTQSPSFLSASVGDRVTITCRASQSIGTNIHWYQQKPGKAPKLLIKYASESISGVPSRFSGSGSGTEFTLTISSLQPEDFATYYCQQNNNWPTTFGAGTKLEIKRAAAGGSGGGPQRVAAHITGTRGRSNTLSSPNSKNEKALGRKINSWESSRSGHSFLSNLHLRNGELVIHEKGFYYIYSQTYFRFQEEIKENTKNDKQMVQYIYKYTSYPDPILLMKSARNSCWSKDAEYGLYSIYQGGIFELKENDRIFVSVTNEHLIDMDHEASFFGAFLVGGGPQRVAAHITGTRGRSNTLSSPNSKNEKALGRKINSWESSRSGHSFLSNLHLRNGELVIHEKGFYYIYSQTYFRFQEEIKENTKNDKQMVQYIYKYTSYPDPILLMKSARNSCWSKDAEYGLYSIYQGGIFELKENDRIFVSVTNEHLIDMDHEASFFGAFLVGGGPQRVAAHITGTRGRSNTLSSPNSKNEKALGRKINSWESSRSGHSFLSNLHLRNGELVIHEKGFYYIYSQTYFRFQEEIKENTKNDKQMVQYIYKYTSYPDPILLMKSARNSCWSKDAEYGLYSIYQGGIFELKENDRIFVSVTNEHLIDMDHEASFFGAFLVG
B2: dsDbhu225-scTRAIL3-FLVGGGPQRVA (antibody)
chain: B1 chain with G59C, A239C
B3: scFvhu225-EHD2-scTRAIL3-FLVGGGPQRVA (antibody)
chain: DYKDDDDKGGGGSGTEVQLVESGGGLVQPGGSLRLSCAASGFSLTNYGVHWVRQAPGKGLEWLGVIWSGGNTDYNTPFTSRFTISRDNSKNTLYLQMNSLRAEDTAVYYCARALTYYDYEFAYWGQGTTVTVSSGGGGSGGGGSGGGGSDIQLTQSPSFLSASVGDRVTITCRASQSIGTNIHWYQQKPGKAPKLLIKYASESISGVPSRFSGSGSGTEFTLTISSLQPEDFATYYCQQNNNWPTTFGAGTKLEIKRAAAGGSGGDFTPPTVKILQSSCDGGGHFPPTIQLLCLVSGYTPGTINITWLEDGQVMDVDLSTASTTQEGELASTQSELTLSQKHWLSDRTYTCQVTYQGHTFEDSTKKCADSNGGSGGASSGGGPQRVAAHITGTRGRSNTLSSPNSKNEKALGRKINSWESSRSGHSFLSNLHLRNGELVIHEKGFYYIYSQTYFRFQEEIKENTKNDKQMVQYIYKYTSYPDPILLMKSARNSCWSKDAEYGLYSIYQGGIFELKENDRIFVSVTNEHLIDMDHEASFFGAFLVGGGPQRVAAHITGTRGRSNTLSSPNSKNEKALGRKINSWESSRSGHSFLSNLHLRNGELVIHEKGFYYIYSQTYFRFQEEIKENTKNDKQMVQYIYKYTSYPDPILLMKSARNSCWSKDAEYGLYSIYQGGIFELKENDRIFVSVTNEHLIDMDHEASFFGAFLVGGGPQRVAAHITGTRGRSNTLSSPNSKNEKALGRKINSWESSRSGHSFLSNLHLRNGELVIHEKGFYYIYSQTYFRFQEEIKENTKNDKQMVQYIYKYTSYPDPILLMKSARNSCWSKDAEYGLYSIYQGGIFELKENDRIFVSVTNEHLIDMDHEASFFGAFLVG
B4: EHD2-scTRAIL3-FLVGGGPQRVA (designed binder)
chain 1: DFTPPTVKILQSSCDGGGHFPPTIQLLCLVSGYTPGTINITWLEDGQVMDVDLSTASTTQEGELASTQSELTLSQKHWLSDRTYTCQVTYQGHTFEDSTKKCADSN
chain 2: MDWTWRVFCLLAVAPGAHSLDDYKDDDDKEFGGGPQRVAAHITGTRGRSNTLSSPNSKNEKALGRKINSWESSRSGHSFLSNLHLRNGELVIHEKGFYYIYSQTYFRFQEEIKENTKNDKQMVQYIYKYTSYPDPILLMKSARNSCWSKDAEYGLYSIYQGGIFELKENDRIFVSVTNEHLIDMDHEASFFGAFLVGGGPQRVAAHITGTRGRSNTLSSPNSKNEKALGRKINSWESSRSGHSFLSNLHLRNGELVIHEKGFYYIYSQTYFRFQEEIKENTKNDKQMVQYIYKYTSYPDPILLMKSARNSCWSKDAEYGLYSIYQGGIFELKENDRIFVSVTNEHLIDMDHEASFFGAFLVGGGPQRVAAHITGTRGRSNTLSSPNSKNEKALGRKINSWESSRSGHSFLSNLHLRNGELVIHEKGFYYIYSQTYFRFQEEIKENTKNDKQMVQYIYKYTSYPDPILLMKSARNSCWSKDAEYGLYSIYQGGIFELKENDRIFVSVTNEHLIDMDHEASFFGAFLV
B5: scTRAIL3-FLVGGGPQRVA (designed binder)
chain: B4 chain 2
B6: dsDb3M6-scTRAIL3-FLVGGGPQRVA (antibody)
chain: DYKDDDDKGGGGSGTEVQLLESGGGLVQPGGSLRLSCAASGFTFSHYVMAWVRQAPGKCLEWVSSISSSGGWTLYADSVKGRFTISRDNSKNTLYLQMNSLRAEDTAVYYCTRGLKMATIFDYWGQGTLVTVSSGGGGSQSALTQPASVSGSPGQSITISCTGTSSDVGSYNVVSWYQQHPGKAPKLIIYEVSQRPSGVSNRFSGSKSGNTASLTISGLQTEDEADYYCSSYAGSSIFVIFGCGTKVTVLAAAGGSGGGPQRVAAHITGTRGRSNTLSSPNSKNEKALGRKINSWESSRSGHSFLSNLHLRNGELVIHEKGFYYIYSQTYFRFQEEIKENTKNDKQMVQYIYKYTSYPDPILLMKSARNSCWSKDAEYGLYSIYQGGIFELKENDRIFVSVTNEHLIDMDHEASFFGAFLVGGGPQRVAAHITGTRGRSNTLSSPNSKNEKALGRKINSWESSRSGHSFLSNLHLRNGELVIHEKGFYYIYSQTYFRFQEEIKENTKNDKQMVQYIYKYTSYPDPILLMKSARNSCWSKDAEYGLYSIYQGGIFELKENDRIFVSVTNEHLIDMDHEASFFGAFLVGGGPQRVAAHITGTRGRSNTLSSPNSKNEKALGRKINSWESSRSGHSFLSNLHLRNGELVIHEKGFYYIYSQTYFRFQEEIKENTKNDKQMVQYIYKYTSYPDPILLMKSARNSCWSKDAEYGLYSIYQGGIFELKENDRIFVSVTNEHLIDMDHEASFFGAFLVG
B7: scFv3M6-EHD2-scTRAIL3-… (HER3 arm) (antibody)
chain: EVQLLESGGGLVQPGGSLRLSCAASGFTFSHYVMAWVRQAPGKGLEWVSSISSSGGWTLYADSVKGRFTISRDNSKNTLYLQMNSLRAEDTAVYYCTRGLKMATIFDYWGQGTLVTVSSGGGGSGGGGSGGGGSQSALTQPASVSGSPGQSITISCTGTSSDVGSYNVVSWYQQHPGKAPKLIIYEVSQRPSGVSNRFSGSKSGNTASLTISGLQTEDEADYYCSSYAGSSIFVIFGGGTKVTVLAAAGGSGGDFTPPTVKILQSSCDGGGHFPPTIQLLCLVSGYTPGTINITWLEDGQVMDVDLSTASTTQEGELASTQSELTLSQKHWLSDRTYTCQVTYQGHTFEDSTKKCADSN
B8: Db3M6-scTRAIL3-… (HER3 arm) (antibody, V domains shown)
VH: EVQLLESGGGLVQPGGSLRLSCAASGFTFSHYVMAWVRQAPGKGLEWVSSISSSGGWTLYADSVKGRFTISRDNSKNTLYLQMNSLRAEDTAVYYCTRGLKMATIFDYWGQGTLVTVSS
VL: QSALTQPASVSGSPGQSITISCTGTSSDVGSYNVVSWYQQHPGKAPKLIIYEVSQRPSGVSNRFSGSKSGNTASLTISGLQTEDEADYYCSSYAGSSIFVIFGGGTKVTVL
B9: scFv3M6-Fc-scTRAIL3-… (HER3 arm) (antibody, V domains shown)
VH: B8 VH
VL: B8 VL

Substitutions are numbered along the chain they refer to.

One test deals with T1, EGFR (human, UniProt P00533). The experiment in a line: FACS, Colo205 cells. In general terms: A flow cytometer gives signals particle by particle.
Turning to B1, the midpoint of the response, the EC50, lay at 0.87 nM.
For B2, the EC50 amounted to 0.86 nM.
As to B3, the EC50 came out at 0.58 nM.

In a further test the target is T2, TRAIL-R2 (DR5) (human, UniProt O14763). The experiment in a line: FACS, Colo205 cells.
B4 yielded an EC50 of more than 100 nM.
B5 yielded an EC50 of 5.67 nM.

For the next test, the target named is T1, EGFR. In words: ELISA. On the technique in general: ELISA stands for enzyme-linked immunosorbent assay.
As for B1, the 50% effective concentration (EC50) was 0.77 nM.
On the same count and under the same terms, to B2 belongs 0.98 nM; to B3, 1.25 nM.

In another test the target is T3, HER3 (human, UniProt P21860). In words: ELISA.
B6 yielded an EC50 of 8.54 nM.
B7 registered an EC50 of 11.6 nM.
B8 gave an EC50 of 5.88 nM.

For another test, the target named is T2, TRAIL-R2 (DR5). The experiment in a line: ELISA.
As to B6, the EC50 is 2.83 nM.
Turning to B4, the concentration for a half-maximal effect (EC50) was 1.94 nM.
As to B5, the EC50 was 1.74 nM.
In the case of B1, the response was half-maximal at 0.79 nM (EC50).
B2: the EC50 came to 1.29 nM.
The molecule B3 gave an EC50 of 1.82 nM.

The target of the next test is T3, HER3. The experiment in a line: FACS, Colo205 cells.
On to B6, for which the half-maximal effective concentration (EC50) was determined as 32.5 nM.
B7 displayed an EC50 of 19.9 nM.
On the same count and under the same terms, to B9 belongs 13.1 nM.
Molecule B8 showed an EC50 of 10.4 nM.

The EC50 is the concentration giving half of the maximal effect. A higher EC50 goes with a less potent agent.
